Details in all cases: transfected HeLa cells; n = 3 per group; parent: est. 1.0; read off a plot
The target of one assay is Orai1 (UniProt Q96D31). The assay is described as follows: Co-IP (GLT-1 capture antibody, immunoblot for Orai1, band quantification). (A western blot detects proteins with antibodies after separation by electrophoresis.)
The target in assay [1] is stromal-interacting molecule 1 (STIM1) (UniProt Q13586). The assay is described as follows: Co-IP (GLT-1 capture antibody, immunoblot for STIM1, band quantification).
Chain of stromal-interacting molecule 1 (STIM1) (Q13586 23-685): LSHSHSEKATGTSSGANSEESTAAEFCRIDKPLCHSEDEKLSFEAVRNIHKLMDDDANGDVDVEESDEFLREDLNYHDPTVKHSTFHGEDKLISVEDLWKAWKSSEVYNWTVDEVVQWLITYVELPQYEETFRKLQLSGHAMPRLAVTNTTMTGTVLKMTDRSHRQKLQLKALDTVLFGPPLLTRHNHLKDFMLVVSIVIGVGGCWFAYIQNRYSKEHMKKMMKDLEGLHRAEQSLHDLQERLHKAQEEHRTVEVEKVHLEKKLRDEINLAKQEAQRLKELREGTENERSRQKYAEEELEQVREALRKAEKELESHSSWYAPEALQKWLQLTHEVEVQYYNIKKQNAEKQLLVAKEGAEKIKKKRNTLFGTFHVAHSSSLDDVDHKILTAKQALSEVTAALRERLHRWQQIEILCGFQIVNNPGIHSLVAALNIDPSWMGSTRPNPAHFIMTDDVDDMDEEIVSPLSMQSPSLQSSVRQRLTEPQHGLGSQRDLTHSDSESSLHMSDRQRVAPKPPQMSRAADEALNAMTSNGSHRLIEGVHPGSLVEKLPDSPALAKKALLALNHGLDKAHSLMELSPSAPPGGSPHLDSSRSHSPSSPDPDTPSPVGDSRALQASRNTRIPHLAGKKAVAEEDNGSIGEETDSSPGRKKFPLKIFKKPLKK
The target is the same in assay [2]. As to the kind of experiment: Co-IP (STIM1 capture antibody, immunoblot for GLT-1, band quantification).

Chain of glutamate transporter GLT-1 (excitatory amino acid transporter 2, EAAT2), WT plasmid (P43006 whole entry, stated change not applied): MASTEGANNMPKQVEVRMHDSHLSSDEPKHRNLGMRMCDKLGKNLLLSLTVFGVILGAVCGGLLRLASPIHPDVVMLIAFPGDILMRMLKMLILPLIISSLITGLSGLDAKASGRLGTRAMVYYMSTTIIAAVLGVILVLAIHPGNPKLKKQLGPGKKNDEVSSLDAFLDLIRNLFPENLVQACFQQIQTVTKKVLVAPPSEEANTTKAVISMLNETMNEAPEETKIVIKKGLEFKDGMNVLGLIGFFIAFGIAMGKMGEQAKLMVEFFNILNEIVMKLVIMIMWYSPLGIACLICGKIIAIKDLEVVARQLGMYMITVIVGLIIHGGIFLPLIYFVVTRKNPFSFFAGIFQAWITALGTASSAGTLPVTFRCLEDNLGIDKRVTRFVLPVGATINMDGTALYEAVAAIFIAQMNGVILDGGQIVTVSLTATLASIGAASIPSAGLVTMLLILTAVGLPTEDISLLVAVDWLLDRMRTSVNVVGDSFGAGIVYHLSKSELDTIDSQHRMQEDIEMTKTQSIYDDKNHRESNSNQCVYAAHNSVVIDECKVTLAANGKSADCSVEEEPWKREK
Chain of Orai1 (Q96D31 whole entry): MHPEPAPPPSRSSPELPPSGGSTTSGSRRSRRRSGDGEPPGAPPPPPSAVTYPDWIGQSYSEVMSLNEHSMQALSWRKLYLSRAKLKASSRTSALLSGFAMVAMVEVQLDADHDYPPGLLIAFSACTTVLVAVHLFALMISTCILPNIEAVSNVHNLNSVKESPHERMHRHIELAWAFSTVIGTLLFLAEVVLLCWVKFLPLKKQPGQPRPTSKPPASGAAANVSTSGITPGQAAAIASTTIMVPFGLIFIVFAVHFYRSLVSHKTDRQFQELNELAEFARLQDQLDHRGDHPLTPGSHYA

Turning to “glutamate transporter GLT-1 (excitatory amino acid transporter 2, EAAT2), WT plasmid (from UniProt P43006) P289R”, the results for the response (relative band intensity) (in the assay with Orai1; in assay [1]; in assay [2]) were 0.15, 0.1 and 0.1, respectively.

Values taken from PMC9772344.
